Experiment [1] addresses mGluR of mouse cerebellar Purkinje cells (mouse) (UniProt P97772). Put plainly: cell-based or functional assay.
Experiment [2] deals with T1, GKAP 1, native, from rat brain extracts (rat, UniProt P97836 1-992).
T1 construct: mature
T1 sequence (looked up): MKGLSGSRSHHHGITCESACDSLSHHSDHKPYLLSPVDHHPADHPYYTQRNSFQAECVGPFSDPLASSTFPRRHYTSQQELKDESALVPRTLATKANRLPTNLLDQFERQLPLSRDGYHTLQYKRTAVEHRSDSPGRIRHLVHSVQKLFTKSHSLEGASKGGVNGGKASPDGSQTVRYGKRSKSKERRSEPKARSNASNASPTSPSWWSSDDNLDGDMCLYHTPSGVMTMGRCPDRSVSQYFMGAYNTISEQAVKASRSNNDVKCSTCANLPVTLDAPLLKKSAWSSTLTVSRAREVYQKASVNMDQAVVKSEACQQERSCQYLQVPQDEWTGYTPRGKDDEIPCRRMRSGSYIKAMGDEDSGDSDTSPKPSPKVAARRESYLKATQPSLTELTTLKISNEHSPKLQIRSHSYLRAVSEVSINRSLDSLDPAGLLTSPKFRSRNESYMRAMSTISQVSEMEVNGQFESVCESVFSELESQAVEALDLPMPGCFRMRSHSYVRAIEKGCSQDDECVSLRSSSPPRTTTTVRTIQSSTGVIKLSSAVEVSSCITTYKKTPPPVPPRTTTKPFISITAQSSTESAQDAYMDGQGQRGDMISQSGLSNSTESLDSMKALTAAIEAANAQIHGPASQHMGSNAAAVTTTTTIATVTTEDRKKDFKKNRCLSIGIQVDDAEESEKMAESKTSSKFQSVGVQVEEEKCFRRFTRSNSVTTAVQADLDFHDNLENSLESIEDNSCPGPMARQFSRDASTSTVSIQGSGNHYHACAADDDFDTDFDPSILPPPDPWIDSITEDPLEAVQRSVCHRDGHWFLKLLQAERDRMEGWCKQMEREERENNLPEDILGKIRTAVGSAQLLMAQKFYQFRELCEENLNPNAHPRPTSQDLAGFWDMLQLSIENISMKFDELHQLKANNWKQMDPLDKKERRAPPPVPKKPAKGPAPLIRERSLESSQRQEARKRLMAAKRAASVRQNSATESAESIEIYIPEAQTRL
Put plainly: GST pull-down from rat brain extracts.

mGluR of mouse cerebellar Purkinje cells (mouse), sequence (P97772 21-1199): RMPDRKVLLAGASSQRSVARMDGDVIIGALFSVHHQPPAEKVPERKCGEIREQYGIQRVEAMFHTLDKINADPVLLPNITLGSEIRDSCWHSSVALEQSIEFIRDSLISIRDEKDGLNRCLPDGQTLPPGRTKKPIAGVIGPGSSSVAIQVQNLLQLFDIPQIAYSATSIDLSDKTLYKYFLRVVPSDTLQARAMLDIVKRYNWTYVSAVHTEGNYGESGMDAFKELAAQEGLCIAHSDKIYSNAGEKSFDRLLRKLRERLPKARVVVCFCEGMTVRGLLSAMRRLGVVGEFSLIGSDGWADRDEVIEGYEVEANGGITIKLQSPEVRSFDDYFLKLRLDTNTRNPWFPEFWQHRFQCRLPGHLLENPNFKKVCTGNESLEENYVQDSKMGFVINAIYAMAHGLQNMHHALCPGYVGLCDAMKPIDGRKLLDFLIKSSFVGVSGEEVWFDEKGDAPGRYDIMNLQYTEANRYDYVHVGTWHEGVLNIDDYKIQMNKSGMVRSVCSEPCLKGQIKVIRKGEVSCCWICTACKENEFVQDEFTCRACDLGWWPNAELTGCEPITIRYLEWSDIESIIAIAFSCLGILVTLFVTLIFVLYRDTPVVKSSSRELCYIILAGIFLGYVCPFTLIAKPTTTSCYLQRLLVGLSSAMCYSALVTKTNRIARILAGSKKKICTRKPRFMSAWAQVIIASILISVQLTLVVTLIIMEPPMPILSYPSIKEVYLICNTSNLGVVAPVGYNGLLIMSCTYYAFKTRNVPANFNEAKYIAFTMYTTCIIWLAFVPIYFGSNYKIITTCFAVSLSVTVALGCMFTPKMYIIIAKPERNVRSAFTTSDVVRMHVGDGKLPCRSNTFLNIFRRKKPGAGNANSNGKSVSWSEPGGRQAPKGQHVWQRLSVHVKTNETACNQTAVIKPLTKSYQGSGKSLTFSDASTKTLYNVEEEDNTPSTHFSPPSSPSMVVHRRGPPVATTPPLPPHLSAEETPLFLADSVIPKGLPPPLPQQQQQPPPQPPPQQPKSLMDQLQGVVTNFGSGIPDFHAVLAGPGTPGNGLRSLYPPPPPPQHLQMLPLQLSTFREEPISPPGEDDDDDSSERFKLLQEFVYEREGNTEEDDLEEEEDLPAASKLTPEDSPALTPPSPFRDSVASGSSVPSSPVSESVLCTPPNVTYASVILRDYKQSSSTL

In experiment [1], “IEG form of Homer 1: 186 amino acid amino-terminal fragment of Homer 1b (pRK5 Homer 1 IEG) (from UniProt Q9Z2Y3 1-198)” displayed a mGluR-evoked Ca+2 response, amplitude of 170 nM and a mGluR-evoked Ca+2 response, latency of 10.5 s.

B1: GST-GKAP(carboxy-terminal): carboxy-terminal 76 amino acids of GKAP1a fused to GST (other, UniProt P97836-5 591-666, looked up)
chain: MDPLDKKERRAPPPVPKKPAKGPAPLIRERSLESSQRQEARKRLMAAKRAASVRQNSATESAESIEIYIPEAQTRL
notes: domain: carboxy-terminal 76 amino acids; not shown: glutathione-S-transferase, fusion partner
Consider B1, for which the binding result in experiment [2] is on record as “no binding”.

The values above are taken from patent US20030170807A1 (Johns Hopkins, published 2003).
